From the supplement of paper PMC12764529
± gives the half width of the 95% confidence interval.

assay: folding stability dG unfold from chymotrypsin proteolysis; higher = more stable
How it was run: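 K50 was inferred by Bayesian fitting of sequencing counts obtained after protease digestion of designed mini-proteins. Unfolding free energy was derived by comparison with a sequence-predicted unfolded-state K50 and a shared folded-state K50, for each protease or both combined. The mini-proteins were under 80 residues, had no cysteine, were carried in a PA-tagged cDNA display construct, and were kept only if AlphaFold2 dimer inter-PAE exceeded 15.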

Sequence	folding stability dG unfold
SAGGSAGGSAGGDDDWRIMINIEIWPYPNYVRIRFPIMIIPPDGKLIGSVEVTFWIPANDSAGGSAGGSAGG [r7_812_TrROS]	3.84 ± 0.37 kcal/mol
SAGGSAGIKAVLNLGDKPVLVLIEPLPDGSFPVIAIFADDGSKVEKVIPASDIGELLSLDPDKLTFSAGGSA [r15_629_TrMRF]	0.0558 ± 0.26 kcal/mol
SAGGPKVEIVDITVTEEEVNGKKKKTVTVKVKLENGETLTITMSEEELKKLGLSVEEIAKKLAKKLKSAGGS [r16_625_TrROS_Hall]	2.38 ± 0.044 kcal/mol
SAGGSAGGSAGMKIEYEHDPNRNWYTVKIDFPNGPPKIPIQVPHDDMPPNDLRDWAKELFSAGGSAGGSAGG [r11_557_TrROS]	0.58 ± 0.33 kcal/mol
SAGGIDLSKLPKNSIVVITKVKVYPTKVGEPDGEGEGYVEVELRVFRNIPPTGKILSSPLPVKFKIASAGGS [r8_486_TrMRF]	0.987 ± 0.25 kcal/mol
SAGGSMSIPLKTEEDVKKAVEYIKQKLLEEGAPEGLKIDKVEVTKLPDGTYKITITFPNKTFELVGSAGGSA [r2_120_JUSTAS]	2.64 ± 0.047 kcal/mol
SAGGSAPPDTPLATIEFTLTPPDGSTTPTTITVPPSVVEEAAAAQKAAFEAAGWATTVTVATTTPLSAGGSA [r2_274_JUSTAS]	0.246 ± 0.1 kcal/mol
SAGGSAGGSAGGSYIIVQFPADEIKEALPPGFEIKSIERSPKNGWVMVAIRYPKDGKPISAGGSAGGSAGGS [r4_435_TrROS]	0.416 ± 0.17 kcal/mol
SAGGSAGGSMVLNFEDTKPGVSPEEAAARVAAKIRAEHDVAVLGVEVETSPTGGYHITITVDPSAGGSAGGS [r12_781_JUSTAS]	0.272 ± 0.08 kcal/mol
SAGGGVTITASPDGTVTITIGGKPITVPVHPGATLEFRVEPTPDGRPAVTITWTSPDGTPYTFTFTGSAGGS [r16_231_TrMRF]	5.015 ± 0.036 kcal/mol
SAGGMTITIPPSVPDADVERIVEEAEATFPQPVTLTRDPGRGRWTLTFDGPEDERREAIEALAARLASAGGS [r16_227_JUSTAS]	0.565 ± 0.19 kcal/mol
SAGGSAMEIEVEKNEDGTVTIRFRDKETGEEIEIEIEVEPGMTEEEVREKAEELAEELKKKGIEIESAGGSA [r15_1022_TrROS_Hall]	2.73 ± 0.19 kcal/mol
SAGGSSSSALVTVPRTETFPGTTLTTETLITIDPETGTVKVTSTVYSEGEPVEVVPSTVPAAEVTLSAGGSA [r2_188_JUSTAS]	0.503 ± 0.051 kcal/mol
SMTTEEKVEVSVTVTPDPNSDNVTLTLTITKRTYAKDENGNWTEVSTETSTITVTLSPEEAAKLAAELLSSA [r9_642_JUSTAS]	4.52 ± 0.099 kcal/mol
SMPGVRVRLYTVRVKTPEGGELTAPIAVPAELFTEEEIRELVREAFPDAEDVEIEPAVLELPPAPGLLTASA [r9_841_TrMRF]	1.31 ± 0.1 kcal/mol
SAGGSAGGMELLPDGTLVLTLKAPSLEEALKAAEALAPPGAEVEIRFDEETKEVVIVIKLPPPESAGGSAGG [r6_859_TrROS_Hall]	4.06 ± 0.046 kcal/mol

Sequence	folding stability dG unfold
SAGGEKDLYLVKYRVEIKNDKGEKKEFPVTAIATSLEELEETLKALTPKNAEAKVEILEVKPLKEVLSSAGG [r13_513_TrMRF]	1.55 ± 0.038 kcal/mol
SAGGKFKIVKIEVEEKTVKVKNKDGKIEKKKVKVIKVKIYKDGKLIKEVTFKSKEDMLNALKELLKKSAGGS [r8_21_TrROS_Hall]	4.53 ± 0.23 kcal/mol
SAGGMPPDARKLIREIAQDFGMSDIEPDEEGHVRINMPNPMMIQVDVENGEPKIKIYNNNKWREIPISAGGS [r16_296_TrROS]	0.411 ± 0.31 kcal/mol
SAGGSAGGSAGGSVPSVKLPKVGLKTDPVSSVLDFGEEKGDPVSVSIHLTLFLPDGTILLSAGGSAGGSAGG [r11_890_JUSTAS]	0.881 ± 0.12 kcal/mol
SAGGSAGGSAGKKIPFGKNVKILEIEEIDPDIIIIKFENSVFIVRILPNGEVKVIKFDIDSAGGSAGGSAGG [r11_612_TrMRF]	2.4 ± 0.027 kcal/mol
SMKPGAEITIEPFPDGMYKITLPDGRERIFSPNGIAIEITPNKIKIEMFHPGKPIMEMEVEIPPPDPNDPSA [r9_901_TrROS]	0.771 ± 0.16 kcal/mol
SAGGKVSVEVRGNGPGSYVALWLPGPGTVIAREFEDGDRFDDLPEDAEPSRVVFFGYDGVPEEFELGSAGGS [r8_487_TrMRF]	0.487 ± 0.071 kcal/mol
SAGGSAGGSMTITKRSDGTIEVEIEISPEHPDVSPEEVKERVKKELEKKGIKTPVKITVKPVPESAGGSAGG [r6_480_JUSTAS]	2.27 ± 0.14 kcal/mol
SAGGSAGGSAGGSEVEVTTRPDGSIVARVRLPDGGVLTLVAEVGPDGSVVVTEASLSPESAGGSAGGSAGGS [r4_246_TrMRF]	1.94 ± 0.027 kcal/mol
SAGGSASMTIVPVKSEEELEAYIKTKNPKVFLLPLPDGTELVVKVNVDDPSKIEKVSLSKPEEILLSAGGSA [r15_11_JUSTAS]	0.664 ± 0.16 kcal/mol
SAGGSAPRVVRVETVTLTPPADSTVTARLLRLETPEGPRYVLAVRDPSTPVVVARPVPEGATLLEESAGGSA [r15_75_TrMRF]	-0.124 ± 0.1 kcal/mol
SGLVEAIAKALGAESVTPHPDGTFSLRLKDGSYLKIKVEVLEVRERPDGSPEFIVKIEIEVFEGGKPEDESA [r9_648_TrMRF]	5.94 ± 0.065 kcal/mol
SAGGRLVEAIREANKQGKPMSREEIKDKIKDAIREQNEENGGKIPEIEITDIHWNPDNGYVPIEIKVSAGGS [r16_365_TrROS]	-0.62 ± 0.27 kcal/mol
SAGEVELEVPIEALKKLPNLEGATVRVTVKLNENGELEITIEVEKAPEPPLTEEEKKKLLEEEEKKKKSAGG [r19_313_TrROS_Hall]	1.31 ± 0.31 kcal/mol
SAGGSLRQLIRALFKKKGIPIEPEKVDPNWVTFKVPNKDVKIDLPDGNKIEIKPNGYVRIRIPPDDLSAGGS [r8_297_TrROS]	-0.354 ± 0.89 kcal/mol
